Experimental data: patent publication US20230250178A1

Legend:
mouse FcRn (mouse) = mouse FcRn (mouse) (UniProt Q61559); assay: SPR pH 6.0, FcRn immobilised
[1] = molecular target: cynomolgus FcRn (cynomolgus) (UniProt Q8SPV9); assay: SPR pH 6.0, FcRn immobilised
human FcRn (human) = human FcRn (human) (UniProt P55899); assay: SPR pH 6.0, FcRn immobilised
[2] = molecular target: FcRn of the FcRn column (Roche, Order No. 8128057001); assay: FcRn affinity chromatography, pH gradient
human CCR8 (human) [3] = molecular target: human CCR8 (human) (UniProt P51685); assay: cell-based or functional assay
human CCR8 (human) [4] = molecular target: human CCR8 (human) (UniProt P51685); assay: FACS, BODIPY-labelled antibody, HuT78
[5] = molecular target: cynomolgus CCR8 (cynomolgus); assay: FACS, CHO-cynoCCR8
human CCR8 (human) [6] = molecular target: human CCR8 (human) (UniProt P51685); assay: FACS, CHO-hCCR8
murine CCR8 (mouse) = murine CCR8 (mouse) (UniProt P56484); assay: FACS, BODIPY-labelled antibody, BW5147.3
murine CCR8 (mouse), sequence (P56484 whole entry): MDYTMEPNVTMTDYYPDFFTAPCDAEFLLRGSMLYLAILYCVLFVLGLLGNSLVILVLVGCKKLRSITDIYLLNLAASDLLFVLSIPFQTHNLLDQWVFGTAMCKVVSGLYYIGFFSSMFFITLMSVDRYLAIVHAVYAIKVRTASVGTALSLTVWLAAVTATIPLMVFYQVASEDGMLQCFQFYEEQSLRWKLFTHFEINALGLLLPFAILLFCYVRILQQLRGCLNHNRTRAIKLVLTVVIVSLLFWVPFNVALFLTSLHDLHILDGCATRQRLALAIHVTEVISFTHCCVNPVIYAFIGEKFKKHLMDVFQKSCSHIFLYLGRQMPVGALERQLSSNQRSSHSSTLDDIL

Ustekinumab (antibody), sequence (HC): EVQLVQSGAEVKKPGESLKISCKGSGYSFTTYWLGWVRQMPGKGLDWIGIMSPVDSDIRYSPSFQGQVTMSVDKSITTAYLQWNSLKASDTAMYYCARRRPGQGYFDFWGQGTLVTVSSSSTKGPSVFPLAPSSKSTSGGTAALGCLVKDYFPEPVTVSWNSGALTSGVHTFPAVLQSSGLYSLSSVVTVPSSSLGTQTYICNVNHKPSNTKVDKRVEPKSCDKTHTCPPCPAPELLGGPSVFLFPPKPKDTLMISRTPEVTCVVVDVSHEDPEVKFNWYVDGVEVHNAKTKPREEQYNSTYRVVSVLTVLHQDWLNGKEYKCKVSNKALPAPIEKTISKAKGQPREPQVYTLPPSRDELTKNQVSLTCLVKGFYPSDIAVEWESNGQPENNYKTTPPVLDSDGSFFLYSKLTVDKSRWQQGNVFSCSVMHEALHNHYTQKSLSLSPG
Ustekinumab (antibody), sequence (LC): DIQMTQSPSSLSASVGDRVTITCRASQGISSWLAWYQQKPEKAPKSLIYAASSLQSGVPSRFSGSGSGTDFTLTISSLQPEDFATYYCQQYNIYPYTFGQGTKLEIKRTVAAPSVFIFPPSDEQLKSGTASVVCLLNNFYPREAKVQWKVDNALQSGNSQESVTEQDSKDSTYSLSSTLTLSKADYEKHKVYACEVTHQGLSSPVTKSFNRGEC
mouse FcRn (mouse), sequence (Q61559 22-297 limits assumed, form in doubt): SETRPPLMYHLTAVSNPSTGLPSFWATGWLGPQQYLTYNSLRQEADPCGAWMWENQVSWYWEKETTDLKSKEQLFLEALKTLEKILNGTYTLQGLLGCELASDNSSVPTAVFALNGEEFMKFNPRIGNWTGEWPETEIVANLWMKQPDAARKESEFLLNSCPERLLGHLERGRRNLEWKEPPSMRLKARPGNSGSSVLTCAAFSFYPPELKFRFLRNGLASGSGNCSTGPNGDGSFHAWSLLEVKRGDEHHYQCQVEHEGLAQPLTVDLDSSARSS
cynomolgus FcRn (cynomolgus), sequence (Q8SPV9 24-297 limits assumed, form in doubt): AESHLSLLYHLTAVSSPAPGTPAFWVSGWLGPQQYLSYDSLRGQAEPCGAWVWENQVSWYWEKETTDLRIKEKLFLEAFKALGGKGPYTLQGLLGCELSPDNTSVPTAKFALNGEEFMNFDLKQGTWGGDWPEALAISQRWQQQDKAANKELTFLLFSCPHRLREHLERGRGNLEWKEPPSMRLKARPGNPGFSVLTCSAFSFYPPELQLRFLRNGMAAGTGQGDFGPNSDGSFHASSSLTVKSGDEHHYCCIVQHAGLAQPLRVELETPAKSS
human FcRn (human), sequence (P55899 24-297 limits assumed, form in doubt): as the sequence (Q8SPV9 24-297 limits assumed, form in doubt) above, with D39N, Q44E, S99G, G189S, N190S, M217L, T269S counted along it
cynomolgus CCR8 (cynomolgus), sequence (O97665 other isoform, or with tags, fused parts or gaps): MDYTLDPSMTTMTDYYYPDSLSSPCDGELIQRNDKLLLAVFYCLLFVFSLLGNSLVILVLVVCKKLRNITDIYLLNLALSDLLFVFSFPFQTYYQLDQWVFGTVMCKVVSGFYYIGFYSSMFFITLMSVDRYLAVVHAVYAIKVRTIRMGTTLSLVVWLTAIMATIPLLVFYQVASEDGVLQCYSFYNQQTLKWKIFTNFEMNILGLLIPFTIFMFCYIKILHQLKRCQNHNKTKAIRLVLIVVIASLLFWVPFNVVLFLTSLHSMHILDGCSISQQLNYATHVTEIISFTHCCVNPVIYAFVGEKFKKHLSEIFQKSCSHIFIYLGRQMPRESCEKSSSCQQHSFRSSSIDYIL

| Kd (mouse FcRn (mouse)) | Kd [1] | Kd (human FcRn (human)) | pH at Elution [2] | Substance | also measured |
| --- | --- | --- | --- | --- | --- |
| 560 nM | 160 nM | 230 nM | 7.85 pH | Briakinumab (antibody) | – |
| – | – | – | – | CCL1 (human) (from UniProt P22362 24-96) (ligand) | EC80, β-arrestin signaling (DiscoverX assay) (human CCR8 (human) [3]): 0.02 µg/mL |
| – | – | – | – | L263G8 (antibody) | IC50, Ca flux assay (human CCR8 (human) [3]): 1.26 nM; IC50, inhibition of CCL1 induced β-arrestin signaling (human CCR8 (human) [3]): 13.8 nM; FACS HuT78 [MFI] (human CCR8 (human) [4]): 40 MFI; EC50 [5]: 132 nM; EC50 (human CCR8 (human) [6]): 0.31 nM |
| – | – | – | – | SA214G2 (antibody) | FACS mBW5147.3 [MFI] (murine CCR8 (mouse)): 48 MFI |
| 71 nM | 260 nM | 200 nM | 7.22 pH | Ustekinumab (antibody) | – |
